For 6 molecules, Kd results are on record in patent US10941197 (dated 2021).

One assay concerns the target T1, cyno OSM (cynomolgus).
T1 chain: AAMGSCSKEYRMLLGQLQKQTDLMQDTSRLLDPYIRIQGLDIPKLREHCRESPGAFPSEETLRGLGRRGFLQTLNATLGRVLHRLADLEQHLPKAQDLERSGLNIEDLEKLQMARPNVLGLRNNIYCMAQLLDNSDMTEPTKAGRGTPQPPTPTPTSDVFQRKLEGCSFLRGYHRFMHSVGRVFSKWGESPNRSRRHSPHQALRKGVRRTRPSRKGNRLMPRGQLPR
The assay is described as follows: SPR. In general terms: SPR reads the build-up and loss of mass on a sensor chip optically.

In another assay the target is T2, human OSM (human).
T2 chain: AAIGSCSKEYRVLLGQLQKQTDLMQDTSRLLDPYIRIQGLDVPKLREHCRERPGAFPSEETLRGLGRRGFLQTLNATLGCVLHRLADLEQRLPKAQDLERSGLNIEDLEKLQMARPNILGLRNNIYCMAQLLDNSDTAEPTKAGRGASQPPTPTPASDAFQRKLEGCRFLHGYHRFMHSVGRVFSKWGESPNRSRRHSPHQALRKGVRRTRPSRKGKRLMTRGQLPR
The assay is described as follows: SPR.

B1: M71 (designed binder)
chain 1: EVQLVQSGAEVKKPGESLKISCKGSGYSFTSYWISWVRQMPGKGLEWMGIIYPGDSYTRYSPSFQGQVTISADKSISTAYLQWSSLKASDTAMYYCARVPVSPAYLDY
chain 2: not shown
As usually defined, the Kd is the constant that tells how readily two partners part at equilibrium. A low value points to tighter binding. On to B1, for which the Kd with cyno OSM is 0.108 nM; in the assay with human OSM, 0.105 nM.

B2: M54 (designed binder)
chain 1: EVQLVQSGAEVKKPGESLKISCKGSGYSFTSYWISWVRQMPGKGLEWMGIIYPGDSYTRYSPSFQGQVTISADKSISTAYLQWSSLKASDTAMYYCARGSVFEAYFDY
chain 2: not shown
As to B2, the Kd with cyno OSM was determined as 0.057 nM; with human OSM, 0.053 nM.

B3: M42 (designed binder)
chain 1: EVQLVQSGAEVKKPGESLKISCKGSGYSFTSYWISWVRQMPGKGLEWMGIIYPGDSYTRYSPSFQGQVTISADKSISTAYLQWSSLKASDTAMYYCARGSVFEAYFDY
chain 2: not shown
Turning to B3, the Kd with cyno OSM amounted to 0.516 nM; in the assay with human OSM, 0.484 nM.

B4: M55 (designed binder)
chain 1: EVQLVQSGAEVKKPGESLKISCKGSGYSFTSYWISWVRQMPGKGLEWMGIIYPGDSYTRYSPSFQGQVTISADKSISTAYLQWSSLKASDTAMYYCARGSVFEAYFDY
chain 2: not shown
Turning to B4, the figures for the Kd in the assay with cyno OSM and with human OSM were 0.058 nM and 0.054 nM, respectively.

B5: M69 (designed binder)
chain 1: EVQLVQSGAEVKKPGESLKISCKGSGYSFTSYWISWVRQMPGKGLEWMGIIYPGDSYTRYSPSFQGQVTISADKSISTAYLQWSSLKASDTAMYYCARVPVSPAYLDY
chain 2: not shown
As for B5, the equilibrium dissociation constant (Kd) with cyno OSM was 0.062 nM; with human OSM it was 0.045 nM.

B6: M64 (designed binder)
chain 1: EVQLVQSGAEVKKPGESLKISCKGSGYSFTSYWISWVRQMPGKGLEWMGIIYPGDSYTRYSPSFQGQVTISADKSISTAYLQWSSLKASDTAMYYCARVPVSPAYLDY
chain 2: not shown
Turning to B6, the Kd was found to be 0.023 nM with cyno OSM and 0.095 nM in the assay with human OSM.
